Laboratory results from US6919086B1, “Graminae pollen allergen mutants for specific immunotherapy, and production and use of the same” (Merck Patent Gesellschaft mit, priority 1997, dated 2005).

Assays:
[1] = target: IgE antibodies of the individual allergic patient serum II/17; experiment: EAST inhibition, individual serum II/17
[2] = target: specific IgE on basophils from the blood of allergic patient; experiment: cell-based or functional assay
[3] = target: IgE antibodies of the allergic patient serum pool We 6/97; experiment: EAST inhibition, serum pool We 6/97
[4] = target: IgE antibodies of the individual allergic patient serum II/3; experiment: EAST inhibition, individual serum II/3
[5] = target: IgE antibodies of the allergic patient serum pool Bor 18/100 (20 donors); experiment: EAST inhibition, serum pool Bor 18/100
[6] = target: IgE antibodies of the individual allergic patient serum II/12; experiment: EAST inhibition, individual serum II/12

B1: rPhl p 5b deletion mutant DM2 (deletion F51-G178, D49L, K50A) (protein)
chain: ADAGYAPATPAAAGAAAGKATTEEQKLIEDINVGFKAAVAAAASVPAALAGAYDTYKCIPSLEAAVKQAYAATVAAAPQVKYAVFEAALTKAITAMSEVQKVSQPATGAATVAAGAATTAAGAASGAATVAAGGYKV
B1 was tested, and the allergenic potency (Prel) at 25% inhibition (relative to native Phl p 5b) [1] was 2.9e-12 and the concentration required to bring about a 30% histamine release from basophils, against wild type rPh1 p 5b [2] was 500 fold higher.

B2: natural Phl p 5b, purified by affinity chromatography (protein)
chain: ADAGYAPATPAAAGAAAGKATTEEQKLIEDINVGFKAAVAAAASVPAADKFKTFEAAFTSSSKAAAAKAPGLVPKLDAAYSVAYKAAVGATPEAKFDSFVASLTEALRVIAGALEVHAVKPVTEEPGMAKIPAGELQIIDKIDAAFKVAATAAATAPADDKFTVFEAAFNKAIKESTGGAYDTYKCIPSLEAAVKQAYAATVAAAPQVKYAVFEAALTKAITAMSEVQKVSQPATGAATVAAGAATTAAGAASGAATVAAGGYKV
Work on B2 yielded an IC50 [3] of 6.1 nM, an allergenic potency (Prel) at 25% inhibition (relative to native Phl p 5b) [3] of 1 and an allergenic potency (Prel) at 50% inhibition (relative to native Phl p 5b) [3] of 1. For the same binder, the inhibition value (inhibitor concentration at 25% inhibition) [3] was 5.1e-10 mol/L, the IC50 [4] was 5.9 nM and the allergenic potency (Prel) at 25% inhibition (relative to native Phl p 5b) [4] was 1. For the same binder, the allergenic potency (Prel) at 50% inhibition (relative to native Phl p 5b) [4] was 1, the inhibition value (inhibitor concentration at 25% inhibition) [4] was 5.1e-10 mol/L and the IC50 [5] was 4.2 nM. For the same binder, the allergenic potency (Prel) at 25% inhibition (relative to native Phl p 5b) [5] was 1, the allergenic potency (Prel) at 50% inhibition (relative to native Phl p 5b) [5] was 1 and the inhibition value (inhibitor concentration at 25% inhibition) [5] was 3.3e-10 mol/L. The IC50 [6] was 6.8 nM, the allergenic potency (Prel) at 25% inhibition (relative to native Phl p 5b) [6] was 1 and the allergenic potency (Prel) at 50% inhibition (relative to native Phl p 5b) [6] was 1. The inhibition value (inhibitor concentration at 25% inhibition) [6] was 5.2e-10 mol/L, the IC50 [1] was 2.6 nM and the allergenic potency (Prel) at 25% inhibition (relative to native Phl p 5b) [1] was 1. It also gave an allergenic potency (Prel) at 50% inhibition (relative to native Phl p 5b) [1] of 1 and an inhibition value (inhibitor concentration at 25% inhibition) [1] of 2.2e-10 mol/L.

B3: recombinant Phl p 5b (wild type) (protein)
chain: B2 chain
For B3, the IC50 [3] was 1400 nM, the allergenic potency (Prel) at 25% inhibition (relative to native Phl p 5b) [3] was 1.7 and the allergenic potency (Prel) at 50% inhibition (relative to native Phl p 5b) [3] was 0.44. The inhibition value (inhibitor concentration at 25% inhibition) [3] was 3e-10 mol/L, the IC50 [4] was 14 nM and the allergenic potency (Prel) at 25% inhibition (relative to native Phl p 5b) [4] was 0.903. For the same binder, the allergenic potency (Prel) at 50% inhibition (relative to native Phl p 5b) [4] was 0.419, the inhibition value (inhibitor concentration at 25% inhibition) [4] was 5.6e-10 mol/L and the IC50 [5] was 5 nM. For the same binder, the allergenic potency (Prel) at 25% inhibition (relative to native Phl p 5b) [5] was 1.71, the allergenic potency (Prel) at 50% inhibition (relative to native Phl p 5b) [5] was 0.841 and the inhibition value (inhibitor concentration at 25% inhibition) [5] was 2e-10 mol/L. For the same binder, the IC50 [6] was 73 nM, the allergenic potency (Prel) at 25% inhibition (relative to native Phl p 5b) [6] was 0.597 and the allergenic potency (Prel) at 50% inhibition (relative to native Phl p 5b) [6] was 0.093. For the same binder, the inhibition value (inhibitor concentration at 25% inhibition) [6] was 8.7e-10 mol/L, the IC50 [1] was 4.7 nM and the allergenic potency (Prel) at 25% inhibition (relative to native Phl p 5b) [1] was 1.04. The allergenic potency (Prel) at 50% inhibition (relative to native Phl p 5b) [1] was 0.545 and the inhibition value (inhibitor concentration at 25% inhibition) [1] was 2.1e-10 mol/L.

B4: rPhl p 5b deletion mutant DM1 (deletion K50-P132, D49L) (protein)
chain: ADAGYAPATPAAAGAAAGKATTEEQKLIEDINVGFKAAVAAAASVPAALAGELQIIDKIDAAFKVAATAAATAPADDKFTVFEAAFNKAIKESTGGAYDTYKCIPSLEAAVKQAYAATVAAAPQVKYAVFEAALTKAITAMSEVQKVSQPATGAATVAAGAATTAAGAASGAATVAAGGYKV
In the case of B4, the IC50 [3] is reported as 17000 nM, the allergenic potency (Prel) at 25% inhibition (relative to native Phl p 5b) [3] is reported as 0.022 and the allergenic potency (Prel) at 50% inhibition (relative to native Phl p 5b) [3] is reported as 0.0004. It also gave an inhibition value (inhibitor concentration at 25% inhibition) [3] of 2.3e-08 mol/L, an IC50 [4] of 17 nM and an allergenic potency (Prel) at 25% inhibition (relative to native Phl p 5b) [4] of 0.042. It also gave an allergenic potency (Prel) at 50% inhibition (relative to native Phl p 5b) [4] of 0.0035, an inhibition value (inhibitor concentration at 25% inhibition) [4] of 1.2e-08 mol/L and an IC50 [5] of 28 nM. The allergenic potency (Prel) at 25% inhibition (relative to native Phl p 5b) [5] was 0.039, the allergenic potency (Prel) at 50% inhibition (relative to native Phl p 5b) [5] was 0.0015 and the inhibition value (inhibitor concentration at 25% inhibition) [5] was 8.6e-09 mol/L. For the same binder, the allergenic potency (Prel) at 25% inhibition (relative to native Phl p 5b) [6] was 3.4e-05, the allergenic potency (Prel) at 50% inhibition (relative to native Phl p 5b) [6] was 1e-10 and the inhibition value (inhibitor concentration at 25% inhibition) [6] was 1.5e-05 mol/L. The IC50 [1] was 2 nM, the allergenic potency (Prel) at 25% inhibition (relative to native Phl p 5b) [1] was 0.033 and the allergenic potency (Prel) at 50% inhibition (relative to native Phl p 5b) [1] was 0.001. It also gave an inhibition value (inhibitor concentration at 25% inhibition) [1] of 6.5e-09 mol/L and a concentration required to bring about a 30% histamine release from basophils, against wild type rPh1 p 5b [2] of 20 fold higher.
